Earlier results, collected in paper PMC5028754.

Target: ubiquitin (UniProt P0CG48)
Test: NMR
Conditions: cited from earlier work

Chain of Ddi1 UBA (P40087 386-428): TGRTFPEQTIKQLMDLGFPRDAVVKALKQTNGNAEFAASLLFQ
Chain of Ddi1 UBL (P40087 1-80): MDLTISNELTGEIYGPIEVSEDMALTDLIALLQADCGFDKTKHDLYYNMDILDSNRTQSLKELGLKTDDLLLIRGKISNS

Substance | Kd
Ddi1 UBA (from UniProt P40087) | 150 µM
Ddi1 UBL (from UniProt P40087) | 45 µM
